Laboratory results: patent publication US20160009789A1 (US Dept. of Health and Human Services, published 2016)

Assays:
[1] = target: T1, full-length YU2 gp120 (HIV-1 strain YU2, UniProt P35961 32-498); assay: SPR (Biacore), 1:1 Langmuir fit
T1 construct: domain: full-length gp120; also called wild-type gp120

[2] = target: T1, full-length YU2 gp120; assay: SPR (Biacore)

B1: VRC03 (antibody, V domains shown)
VH: QVQLVQSGAVIKTPGSSVKISCRASGYNFRDYSIHWVRLIPDKGFEWIGWIKPLWGAVSYARQLQGRVSMTRQLSQDPDDPDWGVAYMEFSGLTPADTAEYFCVRRGSCDYCGDFPWQYWGQGTVVVVSS
VL: EIVLTQSPGILSLSPGETATLFCKASQGGNAMTWYQKRRGQVPRLLIYDTSRRASGVPDRFVGSGSGTDFFLTINKLDREDFAVYYCQQFEFFGLGSELEVH
notes: also called mAb VRC03
**Q.** Which Kd [1] does the source give for B1 here?
**A.** 73.1 nM

**Q.** And the “fold lower affinity than VRC01 and VRC02” value [2]?
**A.** ~10 fold
